Measurements from article PMC6168201 (Neuron, 2018).

Columns and labels:
[1] = biological target: the molecule itself; test: SEC
[2] = biological target: the molecule itself; test: AUC
[3] = biological target: the molecule itself; test: SEC-MALS

B1: Pcdh15 EC1-3 Asp255Lys/Lys345Asp (domain or fragment)
chain: not shown
[1]
  stoichiometry N: 2

B2: Pcdh15 EC1-3 (wild type) (domain or fragment)
chain: not shown
[2]
  Kd: 1.2 µM
[3]
  stoichiometry N: 2

B3: Pcdh15 EC1-3 Leu138Phe (domain or fragment)
chain: not shown
[2]
  Kd: 15.3 µM
